Data from publication PMC8162480.

T1: HER2 epitope peptide (extracellular juxtamembrane region) (human, UniProt P04626)
T1 chain: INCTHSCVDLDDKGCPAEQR

B1: HB5 (FITC-labeled) (ssDNA)
DNA: AACCGCCCAAATCCCTAAGAGTCTGCACTTGTCATTTTGTATATGTATTTGGTTTTTGGCTCTCACAGACACACTACACACGCACA
B2: HB5-FITC-PL-Peptide probe (ssDNA)
DNA: B1 DNA
modifications: 5'-thiol-C6 conjugated via maleimide to …-PL-K(FITC)FK-Mal (PL = photocleavable o-nitrobenzyl linker)

Biological target: T1, HER2 epitope peptide (extracellular …)
Assay: bead-bound peptide pull-down, HPLC detection

Binder	Kd
B1	34.7 nM
B2	67.4 nM
